This passage reports Kd results from patent publication US20180208661A1 (CSL, published 2018).

Assay in all cases: affinity for IL-3Rα extracellular domain protein; method not stated
For test [1], the target named is T1, human IL-3Rα extracellular domain Y278F (human, UniProt P26951 19-305).
T1 sequence: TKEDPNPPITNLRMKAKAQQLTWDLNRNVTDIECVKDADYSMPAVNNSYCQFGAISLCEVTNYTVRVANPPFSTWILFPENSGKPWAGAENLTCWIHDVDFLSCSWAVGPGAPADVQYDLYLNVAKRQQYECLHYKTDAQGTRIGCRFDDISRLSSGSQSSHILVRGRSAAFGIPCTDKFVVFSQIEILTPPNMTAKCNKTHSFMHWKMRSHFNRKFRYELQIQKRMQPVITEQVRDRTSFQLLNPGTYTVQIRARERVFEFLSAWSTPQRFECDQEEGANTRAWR

In test [2] the target is T2, human IL-3Rα extracellular domain P61A (human, UniProt P26951 19-305).
T2 sequence: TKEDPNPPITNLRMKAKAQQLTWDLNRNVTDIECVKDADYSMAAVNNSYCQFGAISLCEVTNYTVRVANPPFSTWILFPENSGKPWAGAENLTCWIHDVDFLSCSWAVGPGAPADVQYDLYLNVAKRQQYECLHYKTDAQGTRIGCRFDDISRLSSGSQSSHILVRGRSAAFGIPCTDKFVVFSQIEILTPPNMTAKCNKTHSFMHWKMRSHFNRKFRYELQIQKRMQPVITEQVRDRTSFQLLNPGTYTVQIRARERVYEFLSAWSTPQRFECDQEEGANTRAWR

Test [3] has as its target T3, human IL-3Rα extracellular domain V277I (human, UniProt P26951 19-305).
T3 sequence: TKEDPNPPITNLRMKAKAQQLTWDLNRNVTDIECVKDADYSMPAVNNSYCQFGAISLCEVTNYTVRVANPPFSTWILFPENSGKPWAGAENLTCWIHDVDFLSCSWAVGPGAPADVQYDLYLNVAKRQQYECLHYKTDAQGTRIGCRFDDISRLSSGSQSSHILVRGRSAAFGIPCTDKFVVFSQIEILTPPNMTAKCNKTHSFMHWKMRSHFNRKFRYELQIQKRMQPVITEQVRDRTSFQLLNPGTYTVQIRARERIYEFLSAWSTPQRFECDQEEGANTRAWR

The target in test [4] is T4, human IL-3Rα extracellular domain S59A (human, UniProt P26951 19-305).
T4 sequence: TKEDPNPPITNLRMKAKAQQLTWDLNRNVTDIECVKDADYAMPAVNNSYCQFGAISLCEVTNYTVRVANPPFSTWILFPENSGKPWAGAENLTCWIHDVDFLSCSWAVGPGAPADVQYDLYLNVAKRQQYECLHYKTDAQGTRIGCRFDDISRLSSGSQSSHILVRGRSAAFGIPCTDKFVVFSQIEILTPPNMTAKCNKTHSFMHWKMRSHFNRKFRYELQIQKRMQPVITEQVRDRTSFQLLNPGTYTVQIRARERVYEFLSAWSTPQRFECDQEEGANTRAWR

Test [5] has as its target T5, human IL-3Rα extracellular domain V53A (human, UniProt P26951 19-305).
T5 sequence: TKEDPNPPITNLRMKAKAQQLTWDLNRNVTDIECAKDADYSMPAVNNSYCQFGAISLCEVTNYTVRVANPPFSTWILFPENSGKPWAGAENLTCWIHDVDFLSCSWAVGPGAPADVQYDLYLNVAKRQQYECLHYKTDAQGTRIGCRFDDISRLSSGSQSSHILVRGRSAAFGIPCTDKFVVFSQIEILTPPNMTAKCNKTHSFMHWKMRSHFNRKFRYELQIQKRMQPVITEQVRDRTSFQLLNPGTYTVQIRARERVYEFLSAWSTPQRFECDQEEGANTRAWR

Test [6] deals with T6, human IL-3Rα extracellular domain N232T (human, UniProt P26951 19-305).
T6 sequence: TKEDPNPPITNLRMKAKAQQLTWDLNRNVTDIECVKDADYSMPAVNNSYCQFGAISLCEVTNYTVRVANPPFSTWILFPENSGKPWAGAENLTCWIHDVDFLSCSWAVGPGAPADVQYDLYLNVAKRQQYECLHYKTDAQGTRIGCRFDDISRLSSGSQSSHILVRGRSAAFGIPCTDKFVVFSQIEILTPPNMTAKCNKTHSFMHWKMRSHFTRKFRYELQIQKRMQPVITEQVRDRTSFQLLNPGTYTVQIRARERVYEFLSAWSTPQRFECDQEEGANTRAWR

Test [7] has as its target T7, human IL-3Rα extracellular domain V277A (human, UniProt P26951 19-305).
T7 sequence: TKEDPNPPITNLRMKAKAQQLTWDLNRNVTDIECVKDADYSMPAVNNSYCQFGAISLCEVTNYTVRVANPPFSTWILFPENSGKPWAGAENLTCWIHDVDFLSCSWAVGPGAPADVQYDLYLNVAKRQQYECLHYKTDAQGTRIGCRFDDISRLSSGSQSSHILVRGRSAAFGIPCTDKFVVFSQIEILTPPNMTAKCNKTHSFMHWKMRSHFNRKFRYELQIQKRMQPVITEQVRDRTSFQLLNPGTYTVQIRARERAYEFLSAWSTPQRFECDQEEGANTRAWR

In test [8] the target is T8, human IL-3Rα extracellular domain N232A (human, UniProt P26951 19-305).
T8 sequence: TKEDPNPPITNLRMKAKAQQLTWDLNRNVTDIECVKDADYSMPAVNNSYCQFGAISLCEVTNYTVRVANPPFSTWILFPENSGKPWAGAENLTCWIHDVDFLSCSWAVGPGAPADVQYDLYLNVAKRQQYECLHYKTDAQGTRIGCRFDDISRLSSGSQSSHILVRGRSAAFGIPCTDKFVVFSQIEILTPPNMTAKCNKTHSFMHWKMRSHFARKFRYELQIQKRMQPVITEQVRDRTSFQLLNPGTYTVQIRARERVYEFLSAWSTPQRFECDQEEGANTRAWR

Test [9] addresses T9, wild type human IL-3Rα extracellular domain (human, UniProt P26951 19-305).
T9 construct: also called huIL-3Rα WT; WT
T9 sequence: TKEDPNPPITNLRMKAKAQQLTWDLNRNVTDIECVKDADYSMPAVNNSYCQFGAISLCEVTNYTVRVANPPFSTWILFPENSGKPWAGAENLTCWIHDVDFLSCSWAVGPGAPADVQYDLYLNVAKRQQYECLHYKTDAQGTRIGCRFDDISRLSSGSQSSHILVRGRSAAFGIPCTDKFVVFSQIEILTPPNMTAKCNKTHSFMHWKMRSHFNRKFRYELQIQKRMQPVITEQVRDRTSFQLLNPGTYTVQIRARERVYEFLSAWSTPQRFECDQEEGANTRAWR

In test [10] the target is T10, human IL-3Rα extracellular domain E51Q (human, UniProt P26951 19-305).
T10 sequence: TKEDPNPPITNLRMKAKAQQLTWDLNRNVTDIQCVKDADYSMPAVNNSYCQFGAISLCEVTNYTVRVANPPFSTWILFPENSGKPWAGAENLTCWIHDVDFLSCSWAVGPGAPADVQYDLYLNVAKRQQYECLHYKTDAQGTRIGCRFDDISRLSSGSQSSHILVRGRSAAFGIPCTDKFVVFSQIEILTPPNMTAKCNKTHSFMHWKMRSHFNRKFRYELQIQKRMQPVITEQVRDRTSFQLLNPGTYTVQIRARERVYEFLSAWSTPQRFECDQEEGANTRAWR

The target of test [11] is T11, human IL-3Rα extracellular domain E51A (human, UniProt P26951 19-305).
T11 sequence: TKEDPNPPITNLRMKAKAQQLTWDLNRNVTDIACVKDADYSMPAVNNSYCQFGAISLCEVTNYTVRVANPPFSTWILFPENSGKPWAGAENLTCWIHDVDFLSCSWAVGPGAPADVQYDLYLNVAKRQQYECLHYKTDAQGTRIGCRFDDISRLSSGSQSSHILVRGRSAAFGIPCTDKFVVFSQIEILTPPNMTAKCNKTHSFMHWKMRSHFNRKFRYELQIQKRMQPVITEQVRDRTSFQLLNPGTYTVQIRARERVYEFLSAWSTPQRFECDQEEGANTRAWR

B1: human IL-3 (hIL-3) (ligand)
chain: APMTQTTPLKTSWVNCSNMIDEIITHLKQPPLPLLDFNNLNGEDQDILMENNLRRPNLEAFNRAVKSLQNASAIESILKNLLPCLPLATAAPTRHPIHIKDGDWNEFRRKLTFYLKTLENAQAQQTTLSLAIF
B1: the Kd in test [1] came out at 1860 nM; in test [2] it was 176 nM; in test [3] it was 33 nM; in [4] it was 262 nM; in test [5], 588 nM; in [6], 358 nM. The Kd in test [7] is 219 nM; in test [8] it was 2040 nM; in test [9], 125 nM; in [10], 213 nM; in [11] it was 207 nM.

What is called Kd is the equilibrium constant for the complex coming apart. A higher Kd goes with lower affinity.
